# Experimental data published in the supplement of paper PMC9170038.
# Experiments:
# MS2 coat protein [1] = assay: apparent KD of MS2 coat protein, switch ON state; designed switch direction (-1 OFF switch, 1 ON switch): -1; higher = weaker reporter binding; settings: FMN input: 0 or 200 uM; Eterna round: R93 (includes R88 designs)
# Outline: (§1)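 Apparent KD per design is the median of normalised cluster binding-curve fits. Designed RNA switches transcribed on-chip from Illumina sequencing clusters were titrated with SNAP-549-labelled MS2 coat protein in twofold steps from 0.7 or 1.5 nM to 3 µM, with 0.8–1.5 h down to 10–20 min per step. Buffer: 100 mM Tris-HCl pH 7.5, 80 mM KCl, 4 mM MgCl2, without or with constant ligand.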
# MS2 coat protein [2] = assay: apparent KD of MS2 coat protein, switch OFF state (with FMN for OFF switches, without FMN for ON switches); designed switch direction (-1 OFF switch, 1 ON switch): -1; higher = weaker reporter binding; settings: FMN input: 0 or 200 uM; Eterna round: R93 (includes R88 designs)
# Outline: as §1
# MS2 coat protein [3] = assay: apparent KD of MS2 coat protein; designed switch direction (-1 OFF switch, 1 ON switch): 1; higher = weaker reporter binding
# Outline: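 Apparent KD, taken as the median over clusters for each design, was obtained by curve-fitting normalised cluster fluorescence. Designed RNA switches had been transcribed on Illumina chips by stalled E. coli RNA polymerase and titrated with SNAP-549-labelled MS2 coat protein, doubling from 0.7 or 1.5 nM to 3 µM.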
Sequence,apparent KD of MS2 coat protein (MS2 coat protein [1]) [nM],apparent KD of MS2 coat protein (MS2 coat protein [2]) [nM],also measured
AAGACUACAGGAUAUACAUGAGGAUCACCCAUGUAACUGACGGGUAGAUGACGGAGAAGUAGAAGGGUAGUCAA [Ruby 37],67.2,40.6,
AAAAAACAUGAGGAUCACCCAUGUAAGGAUAUGCAAGAAAGAAGAAAGAAAAGAAAAAGCAGAAGGUACAAAAA [Amethyst 71],32.1,34.4,
AAACCACAUGAGGAUCACCCAUGUGAGGAUAUGAACGAAAUAAAAUAAAAAUAAAAGUUCAGAAGGCACAAAAA [Mat - Exclusion 1 - Eli mod - D14],18.2,20.6,
AAAACGUGAGGAUAUACAUGAGGAUCACCCAUGUGAAACAGGAAAAACUGAAAGAAAAGUAGAAGGCACGAAAA [Tweaking Eli],29,44.4,
AGAAAACAUGAGGAUCACCCAUGUCAGGAUAUCUAAAAGAAAAGAAAAGAAAGAAGAAAGAGAAGGGACAAGAA [Sekhemib-Perenmaat],22.1,25.5,
AAGAAGUGAGGAUAUCGAAGACAGACGAAAAGUCUGUCAAACGAGAAGGCACAUGAGGAUCACCCAUGUGGGAA [What have we learned so far? 64% 3],69.5,169,
AGAGACAGAGGAUAUACAUGAGGAUCACCCAUGUAAGAGAAAGAAAAGGGAAAGAAAAGUAGAAGGCUGAGAGA [Ruby 67],24.2,28.7,
AAAAAACAUGAGGAUCACCCAUGUGAGGAUAUGAAAAAACAAAAAAAAAAGUAAUCAAUCAGAAGGCACAACAA [JR_Exc--1_Sub1210],27.4,28.9,
AACAUGUAAGGAUAUCAAAGAAAAGAAAAGAAAGAAAAGAAUGAGAAGGUACAUGAGGAUCACCCAUGUAAGAA [EteRNA is fun!],27.9,21.1,
AGUAGGCGAGGAUAUACAUGAGGAUCACCCAUGUGAAAGAAAAAAGUGAGAAAGAAAAGUAGAAGGCGCUGACA [Ex 3 mod of Eli's mod of Lego's 73%],60.4,204,
AGCUAGUCAGGAUAUACGAACAUGUCGCCAGAUGUGAAGGGACAUGAGGAUCACCCAUGUAGAAGGGACUAGCA [salish99-Ex2-23],254,198,
AAUAACAGAGGAUAUACUAAAGAAAUGAAAAGAAAUAAAGAACAUGAGGAUCACCCAUGUAGAAGGCUGAAUAA [Sheneh],16.9,21.5,
"AAAGGACGAGGAUAUACAUGAGGAUCACCCAUGUAAAAAACGUAAGAAAAGAAGUUAUGUAGAAGGCGUCCAAA [69%, Moding Meechl, 14]",15.5,20.6,
AACAUGUCAGGAUAUGUACGAAAAAAUAAAAAAAUAAAAGUACAGAAGGGACAUGAGGAUCACCCAUGUCAAAA [EX4 394: Minimal 7],33.4,47.4,
AAAAAGUCAGGAUAUCGGAAAAUAAAAAUAAAAAUAAAAAACGAGAAGGGACAUGAGGAUCACCCAUGUAUGAC [Mat - Exclusion 4 - Mayanna - D114],27.6,24.6,
UCCGGAUUAGGAUAUACAUGAGGAUCACCCAUGUGACAAAAAUAUUUUACAAAACCAUGUAGAAGGAAUCCGGA [E3-1.3],125,408,
AAAACACAUGAGGAUCACCCAUGUGAGGAUAUGCUAUGGAAAAUAAAAAUAAAACAUAGCAGAAGGCACAAAGG [Denovo 18],32.9,244,
AAAAAGUGAGGAUAUACAUGAGGAUCACCCAUGUGUAUAAAAAAUUACACAAAAGAAUGUAGAAGGCACUAAAA [JL Mayanne Mod Summer],23.5,124,
AAGAACACAGGAUAUACAUGAGGAUCACCCAUGUAAAAGAAAGAGGGAAAAGAGAAAAGUAGAAGGGUGAAGAA [Hugronaphor],33.1,31.4,
AACAUGUCAGGAUAUGUACGAAAAAAUAAAAAAAUAAAAGUACAGAAGGGACAUGAGGAUCACCCAUGUCAGGG [EX4 393: Minimal 6],100,20,
AACAAACAUGAGGAUCACCCAUGUAAGGAUAUGCAACAAAAACAAAAAACAAAAAAAAGCAGAAGGUACAACAA [Amethyst 99],25.6,28.8,

Sequence,apparent KD of MS2 coat protein (MS2 coat protein [1]) [nM],apparent KD of MS2 coat protein (MS2 coat protein [2]) [nM],also measured
AGGAAACAUGAGGAUCACCCAUGUAAGGAUAUGAACGAAAUAAAAUAAAAAUAAAAGUUCAGAAGGUACGAAAA [Mat - Exclusion 1 - Eli mod - D9],22.1,40.3,
AUAAAACAUGAGGAUCACCCAUGUGAGGAUAUGCGAAAAAAAAAAAGAAAAAAAAAAAGCAGAAGGCACAAUAA [Amethyst 43],32.8,34.9,
"AAAGGAUCAGGAUAUGUGUGGAAAAAGUGUGUCCAAAAAAAACAUGAGGAUCACCCAUGUAGAAGGGAUCCAAA [Mod 4 of Normal (20/19) by Nando, Round 1]",222,260,
GGGUAACAUGAGGAUCACCCAUGUGAGGAUAUUCUAGGGAUGGAAGCUCGGCCGGCCAGGAGAAGGUACUAAAG [Janelle Amethyst 18 Mod 20 - Jieux - Exclusion 1],26.3,36.8,
ACCGAACAUGAGGAUCACCCAUGUGAGGAUAUAGACGCAAAUUAAACGCGUAACAAAACUAGAAGGCACUGGGC [Veais],27.6,15.3,
CUCUUGUCAGGAUAUGAAAGAAAAGAAGAGAAAGAAAAGAAUCAGAAGGGACAUGAGGAUCACCCAUGUAAGAA [EteRNA is fun!],43.6,77.9,
AGCUAGUCAGGAUAUACGAACAUGUCAAAAGACGUGAAGGGACAUGAGGAUCACCCAUGUAGAAGGGACUAGCC [salish99-Ex2-17],33.2,145,
AAAAGCUAAGGAUAUACAUGAGGAUCACCCAUGUAGAACAGUGUAUGGGUAAAGGCGCGUAGAAGGUAGAAAAG [Arbileat],29.9,42.1,
AAAAAACAUGAGGAUCACCCAUGUAAGGAUAUGCGAAAUAAAAGAAAUAAAAAGGAAAGCAGAAGGUACAUGAA [JL wbt mod 8],27.2,84.4,
AGGAAACAUGAGGAUCACCCAUGUCAGGAUAUUCAAAAGAAAAGAAAAGAAAGAAGAAGAAGAAGGGACAAGAA [Wazner],36.7,44.5,
"AGGAGACAUGAGGAUCACCCAUGUUAGGAUAUGAACGAAAAUAAAUAAAAAUAAAAGUUCAGAAGGGACGAAAA [66%, Wbt, 8]",43.3,44.7,
AACAGGUCAGGAUAUGUGUAAAAAAUAAAAAAAAUAUAAACACAGAAGGGACAUGAGGAUCACCCAUGUUAACA [May 26],31.5,35.7,
AACAGUACAGGAUAUACAUGAGGAUCACCCAUGUGAAAAGAAAGUGGCGUACCACAAAGUAGAAGGGUACUGAA [Mat - Exclusion 3 - JL mod - D29],25.3,135,
UACUUACAUGAGGAUCACCCAUGUCAGGAUAUGCGCUCAGAGUAUAUAUAAGAUUCAAGCAGAAGGGACACUAA [JR_Exc001_Sub204],34.8,37.2,
AAGAAGGGAGGAUAUACAUAAAAGAAAGAAAAGAAAAGAAAACAUGAGGAUCACCCAUGUAGAAGGCCCAAGAA [EteRNA is fun!],28.7,29.3,
AGUUGGCGAGGAUAUACAUGAGGAUCACCCAUGUGAAAUCGAGAAAAAAUAGGGAAAAGUAGAAGGCGCAGACA [Ruby 63],20.6,24.1,
GUCCUACAUGAGGAUCACCCAUGUCAGGAUAUGUAGCGUCCGAGCGAAAAGGCCCGGAGCAGAAGGGACAGGUG [Maisbia],16.1,20.1,
AAAAAGUGAGGAUAUACGUUGAAGAGAAAACACAUCCAGGCGUAGAAGGCACAUGAGGAUCACCCAUGUACAAA [Ex4 Malc#7],23.4,19.8,
AUAGUACAUGAGGAUCACCCAUGUCAGGAUAUCGGAUAUGACAUGAAAAACAUGUUAACGAGAAGGGACUAUAA [EX1 Malc#19],26.2,36.6,
"CUGAGCAAUCAAGGAUAUCACGUCGAUUAGACGUGAGAAGGUGAUCAUUACAUGAGGAUCACCCAUGUAUUACAUGGAGCUCAG [Brourd's SSNG1/1-A2 mod 2] (Eterna round: R96, puzzle: Same State NG 1)",,,"apparent KD of MS2 coat protein (MS2 coat protein [3]; input ligand: microRNA oligo, concentration not stated): 833 nM"
AGUCCAGCCUAAGCUGGACAAAAGCAUGUACAUGAGGAUCACCCAUGUUCAUGUACAAGCUUUUUGCUCGUCUUAAG [Mat - hsa-mir-208a - Mod of JL - 65] (puzzle: Sensor for hsa-mir-208a),,,"apparent KD of MS2 coat protein (MS2 coat protein [3]; Eterna round: R95, input ligand: FMN 200 uM): 864 nM; apparent KD of MS2 coat protein (MS2 coat protein [3]; Eterna round: R95, input ligand: microRNA oligo, concentration not stated): 18.7 nM; apparent KD of MS2 coat protein (MS2 coat protein [3]; Eterna round: R95, input ligand: none): 844 nM"
